# Results published in US8620595B2, “Methods for determining the retention of peptides in reverse phase chromatography using linear solvent strength theory” (University of Manitoba, priority 2010, dated 2013).
# Assay: Determination of S from retention time shift Δ relative to P3 at two gradient slopes, nano-RP-HPLC MS of spiked tryptic digest
# Format: physicochemical
# Conditions: for Slope (experimental): LC-MS runs of model peptide mixture
# Procedure: Proteins and protein digestion. Tryptic digests of two different protein mixtures were utilized. The “test peptide mixture” contained human proteins: albumin, transferrin, fibrinogen. The “model peptide mixture” contained bovine proteins: albumin, transferrin, fibrinogen, catalase. Equimolar mixtures of the proteins were prepared, reduced with DTT, alkylated with iodoacetamide and digested with sequencing-grade modified trypsin (Promega, Madison, Wis.). Prior to nano-LC MS/MS analysis, mixtures were diluted with buffer A (0.1% formic acid in water) and spiked with the 6 standard peptides P1-P6^24 for test mixture and the set of 11 model peptides (described elsewhere^23) for a model mixture. All dilutions were performed to provide an injection of ˜100 fmole of each component into the nanoRP-HPLC MS system.
# Chromatography. All chromatographic experiments were conducted at a controlled temperature of 22-23° C. For isocratic measurement of the slope values, a micro-Agilent 1100 Series system (Agilent Technologies, Wilmington, Del.), was used with a 1 mm×100 mm 5 μm Luna C18(2) (Phenomenex, Torrance, Calif.) column and a UV detector operated at 214 nm. Both eluents A (water) and B (acetonitrile) contained 0.1% formic acid as ion-pairing modifier. Stock solutions of the 11 standard peptides (˜1 mg/ml) were prepared by dissolving each peptide in 1 ml of 0.1% FA in water or a 20% acetonitrile solution. Ten microliters of sample was injected. Individual peptides were diluted to provide ˜0.5-1 μg injection of each component using a 10 μl loop. The dead volume of the column and connecting tubings was determined by injecting a non-retained compound (water) and measuring the elution time of the negative peak at a 150 μL/min flow rate. Retention factors for isocratic elution were calculated using the formula: k=(tR−t0)/t0c; where tR is the retention time, t0 is the system (column and tubings) dead time, and t0c is the column dead time. Additional details of measuring S-values via constructing log k vs. φ plots are provided elsewhere.^24 The nano-LC MS/MS experiments were conducted using splitless Tempo LC system (Eksigent, Dublin, Calif.) with 20 μL sample injection via a 300 μm×5 mm PepMap100 (Dionex, Sunnyvale, Calif.) trap-column and a 100 μm×200 mm analytical column packed with 5 μm Luna C18(2) (Phenomenex, Torrance, Calif.). Tryptic digests of the mixtures were spiked with calibrating peptides (see Table 1) as described above, injected on the trap-column using buffer A as a carrier and separated using 0.1875, 0.375 and 0.75 percent acetonitrile per minute linear gradients starting from 0.5% acetonitrile at 500 nL/min flow rate. The composition of both eluents A and B was identical to one described above for normal-flow system. Gradient programs consisted of a 0.5-40% linear increase of buffer B in 213.2, 106.6 and 53.3 minutes, respectively. After each run the gradient columns were washed with 80% B for 3 minutes and equilibrated with the starting A:B ratio for 18 minutes.
# Mass spectrometry. A QStar Elite mass spectrometer (Applied Biosystems, Foster City, Calif.) equipped with a MicrolonSpray II source was used in standard MS/MS information dependent acquisition (IDA) mode for LC-ESI analyses. Protein identification was performed using Protein Pilot 3.0 (Applied Biosystems, Foster City, Calif.) with a restricted database containing target protein sequences and the sequences of standard peptides. Retention times of identified species (peak maxima) were assigned manually.
# These two ways of measurement have been combined to provide a highly accurate and fast way of determining S for an extensive sets of peptides (see FIG. 3). First, precise isocratic measurement of S is performed in normal flow conditions with UV detection for a set of synthetic “S-calibrating” peptides. […]
Substance,Slope (experimental) (experimental S value),also measured
KEEAPSLRPVPPPISGGGYR,42.646,–
KENFEVLCK,–,"Slope (experimental) (experimental S, formic acid): 27.567"
KFWGK,–,"Slope (experimental) (experimental S, formic acid): 27.604"
KGSNFQLDQLQGR,–,"Slope (experimental) (experimental S, formic acid): 33.883"
KKEEAPSLRPVPPPISGGGYR,44.873,–
KLGAPSITCVR,37.615,–
KNWIQYK,31.919,–
KNYELLCGDNTR,–,"Slope (experimental) (experimental S, formic acid): 33.631"
KPPDADGCLHADPDLGVLCPTGCK,–,"Slope (experimental) (experimental S, formic acid): 40.448"
KPVTDAENCHLAR,48.023,–
KPVTEAQSCHLAVAPNHAVVSR,49.479,–
"KPVTEAQSCHLAVAPNHAWSR (KPVTEAQSCHLAVAPNHAVVSR) [tryptic peptide of the model peptide mixture, 5 positively charged groups]",–,"experimental S-value (model peptide mixture (tryptic digest of bovine proteins), 0.75 and 0.1875% acetonitrile per minute gradients, formic acid, S from Δ vs. S curve of S-calibrating peptides): 49.5"
KQTALVELLK,–,"Slope (experimental) (experimental S, formic acid): 27.642"
KTYDSYLGDDYVR,35.968,–
KVIEQVQR,43.582,–
KVPQVSTPTLVEVSR,37.64,–
KYAAELHLVHWNTK,39.205,–
KYCGVPGEYWLGNDR,–,"Slope (experimental) (experimental S, formic acid): 33.065"
LAGGGSASSSADAAAFR,–,"Slope (experimental) (experimental S, formic acid): 35.894"
LAGGGSASSSAHAAAFR,44.118,–
LAGGSASSADAAFR,34.509,–
LAGGSASSAHAAFR,42.588,–
LAGSASADAFR,32.092,–

Substance,Slope (experimental) (experimental S value),also measured
LAGSASAHAFR,40.64,–
LAHEDPDYGLR,36.832,–
LAIGEGQQHQLGGAK,–,"Slope (experimental) (experimental S, formic acid): 39.74"
LASAADFR,29.663,–
LASAAHFR,38.571,–
LAVAAHFR,34.392,–
LCALCAGDDQGLDK,33.517,–
LCENIAGHLK,37.285,–
LCQLCAGK,34.229,–
LCVLHEK,34.16,–
LDGSLDFK,25.689,–
LESDVSTQMEYCR,35.968,–
LFAYPDTHR,31.897,–
LGAPSITCVR,32.708,–
LGEYGFQNALIVR,29.764,–
LGGGGGGDFR,–,"Slope (experimental) (experimental S, formic acid): 31.043"
LGPNYLQIPVNCPYR,32.953,–
LKECCDKPLLEK,42.82,–
LKPDPNTLCDEFK,36.757,–
LKPDPNTLCDEFKADEK,41.815,–
LLCLDGTR,–,"Slope (experimental) (experimental S, formic acid): 25.325"
LLEACTFHKP,36.237,–
LLGGGGDFR,–,"Slope (experimental) (experimental S, formic acid): 25.846"

Substance,Slope (experimental) (experimental S value),also measured
LLGGGSLSSSLDAAAFR,32.333,–
LLGGGSLSSSLHAAAFR,35.968,–
LLGGSLSSLDAAFR,30.604,–
LLGGSLSSLHAAFR,34.021,–
LLGSLSLDAFR,28.402,–
LLGSLSLHAFR,31.94,–
LLHAAHFR,39.794,–
LLHLAHFR,33.837,–
LLHLLHFR,31.51,–
LLIEMEDWK,26.865,–
LLIEMEDWKGDK,30.791,–
LLLGGDFR,22.643,–
LLLLDFR,23.297,–
LLLLLDFR,22.983,–
LLSAADFR,25.969,–
LLSAAHFR,32.998,–
LLSLADFR,25.239,–
LLSLAHFR,29.303,–
LLSLLDFR,24.464,–
LLSLLHFR,28.039,–
LLVAAHFR,31.212,–
LLVLAHFR,28.115,–
LLVLLHFR,27.548,–

Substance,Slope (experimental) (experimental S value),also measured
LNELR,32.443,–
LNSLTVGPR,30.791,–
LQDTLVR,29.045,–
LRDSLFNYQK,31.66,–
LRPVAAEIYGTK,34.815,–
LSQKFPK,38.913,–
LVNELTEFAK,27.906,–
LVTDLTK,28.077,–
LYKELPDPQESIQR,39.098,–
MEDEAESLEDLGFK,29.603,–
MKGLIDEVDQDFTSR,33.2,–
MSTITGPVPR,32.509,–
MVLETFGGDGHAR,–,"Slope (experimental) (experimental S, formic acid): 31.001"
NCPDKFCLFK,–,"Slope (experimental) (experimental S, formic acid): 28.518"
NECFLSHKDDSPDLPK,41.14,–
NFSDVHPEYGSR,37.948,–
NIVELMR,24.282,–
NLLFNDNTECLAK,28.81,–
NLNREDFR,36.957,–
NLRETAEEVK,40.778,–
NLSVEDAAR,32.289,–
NTPEKGYLAVAVVK,34.392,–
NTVDSVSR,40.092,–

Substance,Slope (experimental) (experimental S value),also measured
NWIQYK,26.629,–
NYELLCGDNTR,–,"Slope (experimental) (experimental S, formic acid): 27.868"
NYELLCGDNTRK,–,"Slope (experimental) (experimental S, formic acid): 31.767"
QAYPNLCQLCK,32.399,–
QDGSVDFGR,–,"Slope (experimental) (experimental S, formic acid): 28.518"
QEPERNECFLSHKDDSPDLPK,45.147,–
QFVSSSTTVNR,37.462,–
QGFGNIATNAEGK,–,"Slope (experimental) (experimental S, formic acid): 31.595"
QGFGNIATNAEGKK,–,"Slope (experimental) (experimental S, formic acid): 37.184"
QNCDQFEK,36.657,–
QNQVQDNENWNEYSSHLEK,40.065,–
QSPVDIDTK,–,"Slope (experimental) (experimental S, formic acid): 31.703"
QTALVELLK,24.2,–
QVLLHQQALFGK,33.087,–
RAFALECIR,31.043,–
RHPEYAVSVLLR,–,"Slope (experimental) (experimental S, formic acid): 32.553"
RHPYFYAPELLYYANK,35.968,–
RLCENIAGHLK,40.229,–
RLDGSLDFK,–,"Slope (experimental) (experimental S, formic acid): 29.845"
RLDGSLDFKK,35.968,–
RPCFSALTPDETYVPK,38.129,–
RTPIAVR,39.365,–
RWQWR,27.269,–

Substance,Slope (experimental) (experimental S value),also measured
SEDGSDCGDADFDWHHTFPSR,–,"Slope (experimental) (experimental S, formic acid): 37.158"
SFQLFGSPPGQR,–,"Slope (experimental) (experimental S, formic acid): 24.764"
SHCIAEVEK,–,"Slope (experimental) (experimental S, formic acid): 41.223"
SIEDLR,–,"Slope (experimental) (experimental S, formic acid): 28.058"
SILENLR,24.865,–
SLHTLFGDELCK,–,"Slope (experimental) (experimental S, formic acid): 30.438"
SMMEEIMK,25.394,–
SNLQLLR,24.614,–
SQLQEAPLEWK,28.576,–
SVDGKEDLIWK,–,"Slope (experimental) (experimental S, formic acid): 30.068"
TCVADESHAGCEK,–,"Slope (experimental) (experimental S, formic acid): 47.601"
TFYLK,22.874,–
TGLAPEFAALGESGSSSSK,–,"Slope (experimental) (experimental S, formic acid): 28.402"
TGQIFK,–,"Slope (experimental) (experimental S, formic acid): 24.984"
THFSGDVQR,42.53,–
TPCTVTCNIPVVSGK,34.721,–
TPIAVR,33.313,–
TSDANINWNNLK,30.109,–
TSDANINWNNLKDKK,39.525,–
TSHMDCIK,–,"Slope (experimental) (experimental S, formic acid): 40.393"
TSSSTFQYITLLK,29.703,–
TSTADYASFK,30.833,–
